# Results reported in patent US20210292396A1.
# B1: ePGT121.15 (ePGT121.15.H6 VH and ePGT121.15.L1 VL) (antibody, V domains shown)
# VH: QMQLQESGPGLVKPGETLSLTCSVSGASISSSYWSWLRETPGKGLEWIGYTHHSGDTNYAPSLKSRVHLGLHPSKNQVSLSLTSVTAADTAVYYCARTLHGRRIYGVVAFNEFFTYFYWEVWGKGTQVTVSS
# VL: SDISVAPGETVRISCGGESIGSRAVQWYQHRAGQAPKLIIYNNQDRPPGIPERFSGSPDIDFGTTATLTITNVEAGDEATYYCHIWDSRRPTNWVFGGGTTLTVL
# Columns and labels:
# Experiment in all cases: cell-based or functional assay
# [1] = molecular target: Env of HIV isolate 6540.v4.c1 (clade AC) (HIV)
# [2] = molecular target: Env of HIV isolate BJOX009000.02.4 (clade AE) (HIV)
# [3] = molecular target: HIV Env of isolate 00836-2.5 (HIV)
# [4] = molecular target: Env of HIV isolate C1080.c3 (clade AE) (HIV)
# [5] = molecular target: HIV Env of isolate ZM176.66 (HIV)
# [6] = molecular target: Env of HIV isolate ZM197.7 (clade C) (HIV)
# [7] = molecular target: HIV Env of isolate CH119.10 (HIV)
# [8] = molecular target: Env of HIV isolate 246-F3.C10.2 (clade AC) (HIV)
# [9] = molecular target: HIV Env of isolate 247-23 (HIV)
# [10] = molecular target: Env of HIV isolate X2131.C1.B5 (clade G) (HIV)
# [11] = molecular target: HIV Env of isolate ZM249.1 (HIV)
# [12] = molecular target: Env of HIV isolate X2088.c9 (clade G) (HIV)
# [13] = molecular target: Env of HIV isolate KER2008.12 (clade A) (HIV)
# [14] = molecular target: Env of HIV isolate X1632.S2.B10 (clade G) (HIV)
# [15] = molecular target: HIV Env of isolate 16936-2.21 (HIV)
# [16] = molecular target: HIV Env of isolate CNE30 (HIV)
# [17] = molecular target: Env of HIV isolate BS208.B1 (clade A) (HIV)
# [18] = molecular target: Env of HIV isolate TH023.6 (clade AE) (HIV)
# [19] = molecular target: HIV Env of isolate TV1.29 (HIV)
# [20] = molecular target: Envelope protein of SIVmac251.30.SG3 (clade NA)
# [21] = molecular target: Env of HIV isolate DU172.17 (clade C) (HIV)
# [22] = molecular target: HIV Env of isolate 0077.v1.c16 (HIV)
# [23] = molecular target: Env of HIV isolate MB539.2B7 (clade A) (HIV)
# [24] = molecular target: Env of HIV isolate Q842.d12 (clade A) (HIV)
# [25] = molecular target: Env of HIV isolate 3016.v5.c45 (clade D) (HIV)
# [26] = molecular target: Env of HIV isolate 0815.v3.c3 (clade ACD) (HIV)
# [27] = molecular target: HIV Env of isolate CNE53 (HIV)
# [28] = molecular target: Env of HIV isolate M02138 (clade AE) (HIV)
# [29] = molecular target: Env of HIV isolate HXB2.DG (clade B) (HIV)
# [30] = molecular target: Env of HIV isolate 7165.18 (clade B) (HIV)
# [31] = molecular target: Env of HIV isolate ZM215.8 (clade C) (HIV)
# [32] = molecular target: HIV Env of isolate 6631.v3.c10 (HIV)
# [33] = molecular target: Env of HIV isolate Q168.a2 (clade AD) (HIV)
# [34] = molecular target: Env of HIV isolate QH209.14M.A2 (clade A) (HIV)
# [35] = molecular target: Env of HIV isolate MW965.26 (clade C) (HIV)
# [36] = molecular target: HIV Env of isolate 3873.v1.c24 (HIV)
# [37] = molecular target: Env of HIV isolate TZA125.17 (clade C) (HIV)
# [38] = molecular target: HIV Env of isolate ZM215.8 (HIV)
# [39] = molecular target: Env of HIV isolate R1166.C1 (clade AE) (HIV)
# [40] = molecular target: Env of HIV isolate SO18.18 (clade C) (HIV)
# [41] = molecular target: HIV Env of isolate X1193.c1 (HIV)
# [42] = molecular target: Env of HIV isolate 0013095-2.11 (clade C) (HIV)
# [43] = molecular target: HIV Env of isolate TZA125.17 (HIV)
# [44] = molecular target: Env of HIV isolate Q769.h5 (clade A) (HIV)
# [45] = molecular target: Env of HIV isolate Q461.e2 (clade AD) (HIV)
# [46] = molecular target: Env of HIV isolate RW020.2 (clade A) (HIV)
# [47] = molecular target: Env of HIV isolate PVO.04 (clade B) (HIV)
# [48] = molecular target: Env of HIV isolate Q769.d22 (clade A) (HIV)
# [49] = molecular target: Env of HIV isolate BG1168.01 (clade B) (HIV)
# [50] = molecular target: Env of HIV isolate R3265.c6 (clade AE) (HIV)
binder,measurement,setting,value
B1,"IC50, pseudovirus neutralization",[1],> 50 µg/mL
same,"IC50, pseudovirus neutralization",[2],0.183 µg/mL
same,"IC80, pseudovirus neutralization",[3],> 50 µg/mL
same,"IC50, pseudovirus neutralization",[4],> 50 µg/mL
same,"IC80, pseudovirus neutralization",[5],0.31 µg/mL
same,"IC50, pseudovirus neutralization",[6],> 50 µg/mL
same,"IC80, pseudovirus neutralization",[7],0.016 µg/mL
same,"IC50, pseudovirus neutralization",[8],11.6 µg/mL
same,"IC80, pseudovirus neutralization",[9],> 50 µg/mL
same,"IC50, pseudovirus neutralization",[10],0.002 µg/mL
same,"IC80, pseudovirus neutralization",[11],1.01 µg/mL
same,"IC50, pseudovirus neutralization",[12],0.003 µg/mL
same,"IC50, pseudovirus neutralization",[13],0.01 µg/mL
same,"IC50, pseudovirus neutralization",[14],> 50 µg/mL
same,"IC80, pseudovirus neutralization",[15],0.007 µg/mL
same,"IC80, pseudovirus neutralization",[16],0.027 µg/mL
same,"IC50, pseudovirus neutralization",[17],> 50 µg/mL
same,"IC50, pseudovirus neutralization",[18],> 50 µg/mL
same,"IC80, pseudovirus neutralization",[19],0.01 µg/mL
same,"IC50, pseudovirus neutralization",[20],> 50 µg/mL
same,"IC50, pseudovirus neutralization",[21],0.003 µg/mL
same,"IC80, pseudovirus neutralization",[22],> 50 µg/mL
same,"IC50, pseudovirus neutralization",[23],> 50 µg/mL
same,"IC50, pseudovirus neutralization",[24],0.003 µg/mL
same,"IC50, pseudovirus neutralization",[25],> 50 µg/mL
same,"IC50, pseudovirus neutralization",[26],0.002 µg/mL
same,"IC80, pseudovirus neutralization",[27],0.015 µg/mL
same,"IC50, pseudovirus neutralization",[28],> 50 µg/mL
same,"IC50, pseudovirus neutralization",[29],0.011 µg/mL
same,"IC50, pseudovirus neutralization",[30],0.003 µg/mL
same,"IC50, pseudovirus neutralization",[31],0.017 µg/mL
same,"IC80, pseudovirus neutralization",[32],0.065 µg/mL
same,"IC50, pseudovirus neutralization",[33],5.07 µg/mL
same,"IC50, pseudovirus neutralization",[34],> 50 µg/mL
same,"IC50, pseudovirus neutralization",[35],0.004 µg/mL
same,"IC80, pseudovirus neutralization",[36],0.011 µg/mL
same,"IC50, pseudovirus neutralization",[37],0.07 µg/mL
same,"IC80, pseudovirus neutralization",[38],0.047 µg/mL
same,"IC50, pseudovirus neutralization",[39],> 50 µg/mL
same,"IC50, pseudovirus neutralization",[40],0.004 µg/mL
same,"IC80, pseudovirus neutralization",[41],0.007 µg/mL
same,"IC50, pseudovirus neutralization",[42],3.01 µg/mL
same,"IC80, pseudovirus neutralization",[43],0.403 µg/mL
same,"IC50, pseudovirus neutralization",[44],> 50 µg/mL
same,"IC50, pseudovirus neutralization",[45],> 50 µg/mL
same,"IC50, pseudovirus neutralization",[46],0.003 µg/mL
same,"IC50, pseudovirus neutralization",[47],0.006 µg/mL
same,"IC50, pseudovirus neutralization",[48],> 50 µg/mL
same,"IC50, pseudovirus neutralization",[49],> 50 µg/mL
same,"IC50, pseudovirus neutralization",[50],> 50 µg/mL
